Measured values: ChEMBL document CHEMBL1151784, “Antibiotic evaluation and in vivo analysis of alkynyl Coenzyme A antimetabolites in Escherichia coli” (2008)

Assays:
[1] = substrate: C#CC(=O)NCCNC(=O)CCNC(=O)[C@H](O)C(C)(C)CO; test: (§1) Activity of Escherichia coli K12 CoaA
[2] = substrate: C#CCCNC(=O)CCNC(=O)[C@H](O)C(C)(C)CO; test: as §1
[3] = substrate: C#CCCC(=O)NCCNC(=O)CCNC(=O)[C@H](O)C(C)(C)CO; test: as §1
[4] = substrate: CCCNC(=O)CCNC(=O)[C@H](O)C(C)(C)CO; test: as §1
[5] = substrate: CC(C)(CO)[C@@H](O)C(=O)NCCC(=O)O; test: as §1
[6] = substrate: CC(C)(CO)[C@@H](O)C(=O)NCCC(=O)NCCN=[N+]=[N-]; test: as §1
[7] = substrate: C#CCNC(=O)[C@H](O)C(C)(C)CO; test: as §1
[8] = substrate: C#CCCCCNC(=O)CCNC(=O)[C@H](O)C(C)(C)CO; test: as §1
[9] = substrate: CCC(=O)OCCNC(=O)CCNC(=O)[C@H](O)C(C)(C)CO; test: as §1
[10] = substrate: C=CC(=O)NCCNC(=O)CCNC(=O)[C@H](O)C(C)(C)CO; test: as §1
[11] = substrate: CCC(=O)NCCNC(=O)CCNC(=O)[C@H](O)C(C)(C)CO; test: as §1
[12] = substrate: CCCCCNC(=O)CCNC(=O)[C@H](O)C(C)(C)CO; test: as §1
[13] = substrate: C#CCCCNC(=O)CCNC(=O)[C@H](O)C(C)(C)CO; test: as §1
[14] = substrate: CCOC(=O)NCCNC(=O)CCNC(=O)[C@H](O)C(C)(C)CO; test: as §1
[15] = substrate: C=CCNC(=O)CCNC(=O)[C@H](O)C(C)(C)CO; test: as §1
[16] = substrate: C#CCNC(=O)CCNC(=O)[C@H](O)C(C)(C)CO; test: as §1
[17] = substrate: C#CC(=O)NCCNC(=O)CCNC(=O)[C@H](O)C(C)(C)CO; test: (§2) Ratio of kcat to Km for Escherichia coli K12 CoaA
[18] = substrate: C#CCCNC(=O)CCNC(=O)[C@H](O)C(C)(C)CO; test: as §2
[19] = substrate: C#CCCC(=O)NCCNC(=O)CCNC(=O)[C@H](O)C(C)(C)CO; test: as §2
[20] = substrate: CCCNC(=O)CCNC(=O)[C@H](O)C(C)(C)CO; test: as §2
[21] = substrate: CC(C)(CO)[C@@H](O)C(=O)NCCC(=O)O; test: as §2
[22] = substrate: CC(C)(CO)[C@@H](O)C(=O)NCCC(=O)NCCN=[N+]=[N-]; test: as §2
[23] = substrate: C#CCNC(=O)[C@H](O)C(C)(C)CO; test: as §2
[24] = substrate: C#CCCCCNC(=O)CCNC(=O)[C@H](O)C(C)(C)CO; test: as §2
[25] = substrate: CCC(=O)OCCNC(=O)CCNC(=O)[C@H](O)C(C)(C)CO; test: as §2
[26] = substrate: C=CC(=O)NCCNC(=O)CCNC(=O)[C@H](O)C(C)(C)CO; test: as §2
[27] = substrate: CCC(=O)NCCNC(=O)CCNC(=O)[C@H](O)C(C)(C)CO; test: as §2
[28] = substrate: CCCCCNC(=O)CCNC(=O)[C@H](O)C(C)(C)CO; test: as §2
[29] = substrate: C#CCCCNC(=O)CCNC(=O)[C@H](O)C(C)(C)CO; test: as §2
[30] = substrate: CCOC(=O)NCCNC(=O)CCNC(=O)[C@H](O)C(C)(C)CO; test: as §2
[31] = substrate: C=CCNC(=O)CCNC(=O)[C@H](O)C(C)(C)CO; test: as §2
[32] = substrate: C#CCNC(=O)CCNC(=O)[C@H](O)C(C)(C)CO; test: as §2

B1: Pantothenate kinase (Escherichia coli K-12), P0A6I3 (protein)
chain: MSIKEQTLMTPYLQFDRNQWAALRDSVPMTLSEDEIARLKGINEDLSLEEVAEIYLPLSRLLNFYISSNLRRQAVLEQFLGTNGQRIPYIISIAGSVAVGKSTTARVLQALLSRWPEHRRVELITTDGFLHPNQVLKERGLMKKKGFPESYDMHRLVKFVSDLKSGVPNVTAPVYSHLIYDVIPDGDKTVVQPDILILEGLNVLQSGMDYPHDPHHVFVSDFVDFSIYVDAPEDLLQTWYINRFLKFREGAFTDPDSYFHNYAKLTKEEAIKTAMTLWKEINWLNLKQNILPTRERASLILTKSANHAVEEVRLRK
- Km [1]: 48.5 µM
- Vmax [1]: 0.22 µM/s
- kcat [1]: 0.009 s⁻¹
- Km [2]: 34 µM
- Vmax [2]: 0.33 µM/s
- kcat [2]: 0.0135 s⁻¹
- Km [3]: 47.8 µM
- Vmax [3]: 0.23 µM/s
- kcat [3]: 0.00933 s⁻¹
- Km [4]: 36.9 µM
- Vmax [4]: 0.37 µM/s
- kcat [4]: 0.0152 s⁻¹
- Km [5]: 35.8 µM
- Vmax [5]: 0.31 µM/s
- kcat [5]: 0.0127 s⁻¹
- Km [6]: 43.5 µM
- Vmax [6]: 0.28 µM/s
- kcat [6]: 0.0115 s⁻¹
- Km [7]: 396 µM
- Vmax [7]: 0.26 µM/s
- kcat [7]: 0.0107 s⁻¹
- Km [8]: 40 µM
- Vmax [8]: 0.29 µM/s
- kcat [8]: 0.012 s⁻¹
- Km [9]: 27.8 µM
- Vmax [9]: 0.26 µM/s
- kcat [9]: 0.0108 s⁻¹
- Km [10]: 58 µM
- Vmax [10]: 0.26 µM/s
- kcat [10]: 0.0107 s⁻¹
- Km [11]: 34.6 µM
- Vmax [11]: 0.22 µM/s
- kcat [11]: 0.00883 s⁻¹
- Km [12]: 34 µM
- Vmax [12]: 0.34 µM/s
- kcat [12]: 0.014 s⁻¹
- Km [13]: 40.3 µM
- Vmax [13]: 0.29 µM/s
- kcat [13]: 0.012 s⁻¹
- Km [14]: 33.7 µM
- Vmax [14]: 0.25 µM/s
- kcat [14]: 0.0103 s⁻¹
- Km [15]: 41.2 µM
- Vmax [15]: 0.38 µM/s
- kcat [15]: 0.0157 s⁻¹
- Km [16]: 36 µM
- Vmax [16]: 0.31 µM/s
- kcat [16]: 0.0128 s⁻¹
- kcat/Km [17]: 185 M⁻¹ s⁻¹
- kcat/Km [18]: 396 M⁻¹ s⁻¹
- kcat/Km [19]: 195 M⁻¹ s⁻¹
- kcat/Km [20]: 411 M⁻¹ s⁻¹
- kcat/Km [21]: 352 M⁻¹ s⁻¹
- kcat/Km [22]: 268 M⁻¹ s⁻¹
- kcat/Km [23]: 27 M⁻¹ s⁻¹
- kcat/Km [24]: 300 M⁻¹ s⁻¹
- kcat/Km [25]: 392 M⁻¹ s⁻¹
- kcat/Km [26]: 183 M⁻¹ s⁻¹
- kcat/Km [27]: 257 M⁻¹ s⁻¹
- kcat/Km [28]: 410 M⁻¹ s⁻¹
- kcat/Km [29]: 299 M⁻¹ s⁻¹
- kcat/Km [30]: 305 M⁻¹ s⁻¹
- kcat/Km [31]: 381 M⁻¹ s⁻¹
- kcat/Km [32]: 356 M⁻¹ s⁻¹
